Test results published in IntAct's records for PubMed 20627101.

B1: Induced myeloid leukemia cell differentiation protein Mcl-1 homolog (Mus musculus), P97287 (parent)
chain: MFGLRRNAVIGLNLYCGGASLGAGGGSPAGARLVAEEAKARREGGGEAALLPGARVVARPPPVGAEDPDVTASAERRLHKSPGLLAVPPEEMAASAAAAIVSPEEELDGCEPEAIGKRPAVLPLLERVSEAAKSSGADGSLPSTPPPPEEEEDDLYRQSLEIISRYLREQATGSKDSKPLGEAGAAGRRALETLRRVGDGVQRNHETAFQGMLRKLDIKNEGDVKSFSRVMVHVFKDGVTNWGRIVTLISFGAFVAKHLKSVNQESFIEPLAETITDVLVRTKRDWLVKQRGWDGFVEFFHVQDLEGGIRNVLLAFAGVAGVGAGLAYLIR

Variants of: B1
Details: with ch60_human HSPD1, P10809
ch60_human HSPD1, P10809, sequence (P10809 whole entry): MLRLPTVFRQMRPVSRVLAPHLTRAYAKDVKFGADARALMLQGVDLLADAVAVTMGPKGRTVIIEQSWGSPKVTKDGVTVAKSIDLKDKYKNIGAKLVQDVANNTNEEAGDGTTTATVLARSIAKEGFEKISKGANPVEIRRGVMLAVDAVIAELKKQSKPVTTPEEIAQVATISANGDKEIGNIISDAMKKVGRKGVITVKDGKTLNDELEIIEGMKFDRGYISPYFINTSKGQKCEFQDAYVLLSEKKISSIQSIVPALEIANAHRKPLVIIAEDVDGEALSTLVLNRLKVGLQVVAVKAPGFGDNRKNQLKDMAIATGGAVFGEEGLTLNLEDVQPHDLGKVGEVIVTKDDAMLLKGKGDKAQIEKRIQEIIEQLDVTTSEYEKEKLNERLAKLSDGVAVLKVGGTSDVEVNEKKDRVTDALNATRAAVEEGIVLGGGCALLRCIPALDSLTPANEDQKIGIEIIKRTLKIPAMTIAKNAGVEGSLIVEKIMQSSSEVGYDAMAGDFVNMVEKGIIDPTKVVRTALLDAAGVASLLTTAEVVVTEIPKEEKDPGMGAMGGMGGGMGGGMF

Effect of a mutation on the interaction, disrupting interaction:
MFGLGRNAVIGLNLYCGGASLGAGGGSPAGARLVAEEAKARREGGGEAALLPGARVVARPPPVGAEDPDVTASAERRLHKSPGLLAVPPEEMAASAAAAIVSPEEELDGCEPEAIGKRPAVLPLLERVSEAAKSSGADGSLPSTPPPPEEEEDDLYRQSLEIISRYLREQATGSKDSKPLGEAGAAGRRALETLRRVGDGVQRNHETAFQGMLRKLDIKNEGDVKSFSRVMVHVFKDGVTNWGRIVTLISFGAFVAKHLKSVNQESFIEPLAETITDVLVRTKRDWLVKQRGWDGFVEFFHVQDLEGGIRNVLLAFAGVAGVGAGLAYLIR [R5G]
MFGLRGNAVIGLNLYCGGASLGAGGGSPAGARLVAEEAKARREGGGEAALLPGARVVARPPPVGAEDPDVTASAERRLHKSPGLLAVPPEEMAASAAAAIVSPEEELDGCEPEAIGKRPAVLPLLERVSEAAKSSGADGSLPSTPPPPEEEEDDLYRQSLEIISRYLREQATGSKDSKPLGEAGAAGRRALETLRRVGDGVQRNHETAFQGMLRKLDIKNEGDVKSFSRVMVHVFKDGVTNWGRIVTLISFGAFVAKHLKSVNQESFIEPLAETITDVLVRTKRDWLVKQRGWDGFVEFFHVQDLEGGIRNVLLAFAGVAGVGAGLAYLIR [R6G]
MFGLRRNAVIGLNLYCGGASLGAGGGSPAGAGLVAEEAKARREGGGEAALLPGARVVARPPPVGAEDPDVTASAERRLHKSPGLLAVPPEEMAASAAAAIVSPEEELDGCEPEAIGKRPAVLPLLERVSEAAKSSGADGSLPSTPPPPEEEEDDLYRQSLEIISRYLREQATGSKDSKPLGEAGAAGRRALETLRRVGDGVQRNHETAFQGMLRKLDIKNEGDVKSFSRVMVHVFKDGVTNWGRIVTLISFGAFVAKHLKSVNQESFIEPLAETITDVLVRTKRDWLVKQRGWDGFVEFFHVQDLEGGIRNVLLAFAGVAGVGAGLAYLIR [R32G]
